The target in this data set is T1, XisR (YdaQ), rac excisionase (Escherichia coli K-12 (BW25113; MS match MG1655)) (UniProt P76057).
T1 sequence: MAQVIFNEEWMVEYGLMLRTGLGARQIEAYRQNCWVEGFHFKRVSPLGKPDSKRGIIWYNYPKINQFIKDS
Description: EMSA. The following applies: LightShift Chemiluminescent EMSA kit protocol (binding buffer not stated), 25 C, 1 h; 0.5x TBE polyacrylamide gel; protein stored in 20 mM Tris-HCl, 500 mM …. Background: Mobility shift assays separate free from complexed probe on a gel.

Turning to “AGATTTCTTATGCTGGGCGTTCCGGCATGACGCATACTCTTCTGATGCCATATAACGAATTGAGTCGCTTTTAAATGTCGCAAAATCAAGAAATTAGTAAGAAAGAACAATACAACCTGAACAAGTAAGGGCAAAAATCACAACTCTCTGACTCATAAGTATTTTACTTATTTTTCAATGTGTTAAATATCATCAGCGACAACAATAAGCTACGATAATCCACTCTTTTTTTGCCCCTTTTTTGCCCCTTTTGCAGCGTTTTGCCCCATTTTTGCCACCGAAAAAAATTCCAAA (double strand) [AttR]”, the binding entry is given as “binds”. The entry for “CTATATGCCTTTGATGCGGAGGAATGAATGTGATGGGAGTGATGTATCTGAATAGTTGAAAAACCGCAGTCACGTCGTATGCAAGAACGTGCTGCGGTTGGTTTGACTTTGATTGAGACGTTTTGGAATTTTTTTCGGTGGCAAAAATGGGGCAAAACGCTGCAAAAGGGGCAAAAAAGGGGCAAAAAAAGAGTGGATTATCGTAGCTTATTGTTGTCGCTGATGATATTTAACACATTGAAAAATAAGTAAAATACTTATGAGTCAGAGAGTTGTGATTTTTGCCCTTAC (double strand) [AttM]” is “no binding”.

(Values after article PMC4632033.)
